# Measured values taken from paper PMC3722283.
# Target: concanavalin A
# Assay: SPR
row,Kd [nM],Substance
1,2500,Man3GlcNAc2-RNase (glycoprotein 3) (from UniProt P61823 27-150) (natural protein)
2,1200,"bovine ribonuclease B (native, carrying Man5-9 N-glycans) (from UniProt P61823 27-150) (natural protein)"
3,2400,monofluoro-Man3GlcNAc2 glycoform of RNase (glycoprotein 2) (from UniProt P61823 27-150) (natural protein)
